Molecular target: β2 subunit of human LFA-1 expressed in BAF/LFA-1 cells (human) (UniProt P05107)
Assay: co-IP; lysates of BAF/LFA-1 cells transfected with vector or Spa-1, ±CXCL12 for 1 min, immunoprecipitated with anti-β2, immunoblotted with anti-FLNa

UniProt P05107, sequence (P05107 23-769): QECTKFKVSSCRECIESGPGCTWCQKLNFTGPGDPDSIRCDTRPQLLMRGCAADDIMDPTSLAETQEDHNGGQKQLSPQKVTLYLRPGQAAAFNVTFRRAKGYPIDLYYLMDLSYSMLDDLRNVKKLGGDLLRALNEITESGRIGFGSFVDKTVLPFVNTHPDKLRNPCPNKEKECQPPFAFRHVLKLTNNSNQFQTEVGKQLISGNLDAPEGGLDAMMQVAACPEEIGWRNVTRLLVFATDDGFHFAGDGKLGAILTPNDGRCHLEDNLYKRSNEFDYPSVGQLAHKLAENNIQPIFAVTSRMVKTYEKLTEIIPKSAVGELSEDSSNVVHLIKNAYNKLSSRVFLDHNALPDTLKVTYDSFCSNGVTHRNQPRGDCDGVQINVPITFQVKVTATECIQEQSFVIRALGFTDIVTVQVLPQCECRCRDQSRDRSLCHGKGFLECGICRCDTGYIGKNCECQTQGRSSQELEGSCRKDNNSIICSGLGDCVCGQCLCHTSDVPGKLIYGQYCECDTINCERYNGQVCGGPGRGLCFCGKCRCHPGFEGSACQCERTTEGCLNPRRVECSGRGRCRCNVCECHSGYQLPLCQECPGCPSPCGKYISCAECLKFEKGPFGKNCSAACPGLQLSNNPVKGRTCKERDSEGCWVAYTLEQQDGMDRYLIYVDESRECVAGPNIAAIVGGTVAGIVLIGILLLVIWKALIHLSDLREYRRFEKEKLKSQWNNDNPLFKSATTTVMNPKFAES

endogenous FLNa of BAF/LFA-1 cells, Q8BTM8 1-2647
FLNa co-precipitated with β2 after CXCL12 stimulation, Spa-1-expressing cells, percent: 64.7%
FLNa co-precipitated with β2 after CXCL12 stimulation, control cells, percent: 25.2%

— paper PMC4686857
